Measurements: patent publication US20200353078A1 (AstraZeneca / MedImmune, published 2020)

T1: Human IL-33 Flag®His (human)
T1 construct: Mature IL-33 with C-terminal FLAG 10xHis tag, from E. coli; biotinylated via free cysteines where used biotinylated; also called Mature Human IL-33_FH; human IL-33 FH
T1 chain: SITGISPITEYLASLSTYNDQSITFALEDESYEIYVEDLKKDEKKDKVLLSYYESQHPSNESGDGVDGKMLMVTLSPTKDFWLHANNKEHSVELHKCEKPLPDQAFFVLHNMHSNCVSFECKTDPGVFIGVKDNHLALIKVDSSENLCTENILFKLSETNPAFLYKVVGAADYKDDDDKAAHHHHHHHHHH

T2: His10/Avi Human IL33-01 (human)
T2 chain: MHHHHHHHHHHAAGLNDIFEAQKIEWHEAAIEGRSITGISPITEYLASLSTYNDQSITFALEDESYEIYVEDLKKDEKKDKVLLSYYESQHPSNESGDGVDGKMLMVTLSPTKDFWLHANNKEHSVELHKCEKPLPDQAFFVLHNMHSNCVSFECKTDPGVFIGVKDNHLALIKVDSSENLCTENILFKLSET

T3: His10/Avi Cyno IL-33 (cynomolgus monkey)
T3 construct: also called Cynomolgus 10His Avitag IL-33; biotinylated His Avi cynomolgus IL-33
T3 chain: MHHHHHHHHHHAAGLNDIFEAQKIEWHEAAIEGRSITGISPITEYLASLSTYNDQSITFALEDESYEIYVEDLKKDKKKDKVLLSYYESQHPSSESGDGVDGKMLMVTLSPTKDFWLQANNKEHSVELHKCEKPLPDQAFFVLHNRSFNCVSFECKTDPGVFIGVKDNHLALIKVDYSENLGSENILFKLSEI

T4: Full-length human IL-33 (amino acids 1-270), HEK293-EBNA cell lysate (human, UniProt O95760 1-270)
T4 sequence (looked up): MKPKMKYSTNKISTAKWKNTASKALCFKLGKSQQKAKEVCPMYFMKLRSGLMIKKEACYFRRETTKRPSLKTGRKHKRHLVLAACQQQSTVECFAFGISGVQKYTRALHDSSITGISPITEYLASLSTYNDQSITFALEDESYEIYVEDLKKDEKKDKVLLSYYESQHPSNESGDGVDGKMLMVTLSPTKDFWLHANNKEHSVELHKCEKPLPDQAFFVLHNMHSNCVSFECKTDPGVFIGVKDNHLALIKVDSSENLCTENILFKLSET


Key:
Human IL-33 Flag®His [1] = target: T1, Human IL-33 Flag®His; assay: HTRF competition, IgG titrated against biotinylated human ST2-Fc
Protocol: The ability of anti-IL-33 antibodies to inhibit the binding of FLAG®-His tagged IL-33 to the ST2 receptor was assessed in a biochemical HTRF® (Homogeneous Time-Resolved Fluorescence, Cisbio International) competition assay, the principles of which are described above.
Activity of purified IgG preparations were determined by competing a dilution series of the purified IgG against biotinylated human or mouse ST2.Fc for binding to FLAG® His-tagged human, cynomolgus or mouse IL-33.
Purified or unpurified anti-IL-33 antibody samples were tested for inhibition of FLAG®-His tagged IL-33 binding ST2-Fc by adding 10 microlitres of each dilution of antibody test sample to a 384 well low volume assay plate (Costar 3676). Next, a solution containing 4 nM biotinylated human or mouse ST2-Fc and 20 nM streptavidin XL665 detection (Cisbio International, 611SAXLB) was prepared and 5 microlitres of the mix added to the assay plate. This was followed by the addition of 5 microlitres of a solution containing 1.2 nM FLAG®-His tagged human, cynomolgus or mouse IL-33 combined with 1.72 nM anti-FLAG® cryptate detection (Cisbio International, 61FG2KLB). All dilutions were performed in assay buffer comprised of Dulbeccos PBS (Invitrogen, 14190185) containing 0.8 M potassium fluoride (BDH 103444T) and 0.1% BSA (Sigma A9576). Assay plates were incubated for 2 hour at room temperature followed by 16 hour at 4° C. before reading time resolved fluorescence at 620 nm and 665 nm emission wavelengths using an EnVision plate reader (Perkin Elmer).

Human IL-33 Flag®His [2] = target: T1, Human IL-33 Flag®His; assay: cell-based or functional assay
His10/Avi Human IL33-01 [3] = target: T2, His10/Avi Human IL33-01; assay: cell-based or functional assay
His10/Avi Human IL33-01 [4] = target: T2, His10/Avi Human IL33-01; assay: HTRF epitope competition, IgG titrated; competitor DyLight labelled 33_640117 IgG; overnight
Protocol: (§1) As the epitope competition assay utilising 33_640027 reached its limit of sensitivity, an assay using 33_640117 was used for testing purified scFv samples. The assay was essentially as described for the 33v20064 competition assay with the following modifications: 2.5 nM DyLight labelled 33_640117 was prepared and 2.5 microlitres added to the assay plates. This was followed by the addition of 2.5 microlitres of a solution containing 0.12 nM biotinylated human IL-33-01 combined with 0.75 nM streptavidin cryptate detection (Cisbio International, 610SAKLB) for the human assay or a solution containing 0.24 nM biotinylated cynomolgus IL-33 combined with 1.5 nM streptavidin cryptate detection (Cisbio International, 610SAKLB) for the cynomolgus assay. Fluorescence was read after one hour and overnight incubation.
(§2) The ability of anti-IL-33 antibodies to inhibit the binding of biotinylated His Avi human IL-33 or cynomolgus His Avi IL-33 to the DyLight labelled 33_640117 IgG was assessed in a biochemical HTRF® (Homogeneous Time-Resolved Fluorescence, Cisbio International) competition assays as described above.

His10/Avi Cyno IL-33 = target: T3, His10/Avi Cyno IL-33; assay: HTRF epitope competition, IgG titrated; competitor DyLight labelled 33_640117 IgG; 1 hour
Protocol: as §1, §2

His10/Avi Human IL33-01 [5] = target: T2, His10/Avi Human IL33-01; assay: as above
Protocol: as §1, §2

[6] = target: T4, Full-length human IL-33 (amino acids …); assay: cell-based or functional assay
His10/Avi Human IL33-01 [7] = target: T2, His10/Avi Human IL33-01; assay: cell-based or functional assay

Row | Binder | IC50 (Human IL-33 Flag®His [1]) | IC50, human ST2 transfected HeLa NFkB luciferase reporter assay (Human IL-33 Flag®His [2]) | IC50 (nM) vs. His Avi IL-33, Huvec IL-8 assay (His10/Avi Human IL33-01 [3]) | IC50 (His10/Avi Human IL33-01 [4]) | IC50 (His10/Avi Cyno IL-33) | IC50 (His10/Avi Human IL33-01 [5]) | IC50, Huvec IL-8 assay vs. full length IL-33 cell lysate [6] | IC50, Huvec IL-8 assay vs. His Avi IL-33 (His10/Avi Human IL33-01 [7])
1 | IL330020 IgG1 (antibody, V domains shown, Human IgG1, lambda constant) VH: QVQLVQSGAEVKKPGASVKVSCKASGYTFTSYGISWVRQAPGQGLEWMGWISDYQGYTKYAEKFQGRVTMTTDTSTNTAYMELRSLRSDDTAVYYCARLYSSGWIRQYHFDYWGRGTLVTVSS VL: SYELTQPPSVSVSPGQTASITCSGDNLKDKYVSWYQQKPGQAPVLVLYQDRKRPSGIPERFSGSNSGNTATLTISGTQAMDEADYYCQAWDSGTAFGGGTKVTVL | 40 nM | 147 nM | – | – | – | – | – | –
2 | 33_640237-2 IgG1 (antibody, V domains shown) VH: EVQLLESGGGLVQPGGSLRLSCAASGFTFSSYAMSWVRQAPGKGLEWVSGIADDFTSTYYADPVKGRFTISRDNSKNTLYLQMNSLRAEDTAVYYCARDLWMMNYAGGLRYPFGYWGQGTMVTVSS VL: SYVLTQPPSVSVSPGQTASITCSGERMGDKYAAWYQQKPGQSPVLVIYRDTKRPSGIPERFSGSNSGNTATLTISGTQAMDEADYYCGVLKQDTGVFGGGTKVTVL | – | – | 0.105 nM | – | – | – | – | –
3 | 33_640201 IgG1 (antibody, V domains shown, IgG1; also called ZZ1JMY-H09) VH: EVQLLESGGGLVQPGGSLRLSCAASGFTFSSYAMSWVRQAPGKGLEWVSSIDAISSSTYYADSVKGRFTISRDNSKNTLYLQMNSLRAEDTAVYYCSRQKFMQLWGGGLRYPFGYWGQGTMVTVSS VL: SYVLTQPPSVSVSPGQTASITCSGERMGDKYAAWYQQKPGQSPVLVIYQDTKRPSGIPERFSGSNSGNTATLTISGTQAVDEADYYCGVLKQDTGVFGGGTKVTVL | – | – | – | 0.2 nM | 0.3 nM | 0.2 nM | 0.101 nM | 0.046 nM
4 | 33_640076-4 IgG1 (antibody, V domains shown, IgG1) VH: EVQLLESGGGLVQPGGSLRLSCAASGFTFSSYAMSWVRQAPGKGLEWVSGISAIDQSTYYADSVKGRFTISRDNSKNTLYLQMNSLRAEDTAVYYCARDLWMENWVGGLRYPFGYWGQGTMVTVSS VL: SYVLTQPPSVSVSPGQTASITCSGERMGDKYAAWYQQKPGQSPVLVIYRDTKRPSGIPERFSGSNSGNTATLTISGTQAMDEADYYCEVKKSDTGVFGGGTKVTVL | – | – | – | 0.1 nM | 0.6 nM | 0.1 nM | 0.095 nM | 0.032 nM
5 | 33_640087-7 IgG1 (antibody, V domains shown, IgG1) VH: EVQLLESGGGLVQPGGSLRLSCAASGFTFSSYAMSWVRQAPGKGLEWVSGISAIDQSTYYADSVKGRFTISRDNSKNTLYLQMNSLRAEDTAVYYCARQKFMQLWGGGLRYPFGYWGQGTMVTVSS VL: SYVLTQPPSVSVSPGQTASITCSGEGMGDKYAAWYQQKPGQSPVLVIYRDTKRPSGIPERFSGSNSGNTATLTISGTQAMDEADYYCGVIQDNTGVFGGGTKVTVL | – | – | 0.041 nM | 0.1 nM | 0.2 nM | 0.1 nM | 0.073 nM | 0.025 nM
6 | 33_640082-7 IgG1 (antibody, V domains shown, IgG1) VH: EVQLLESGGGLVQPGGSLRLSCAASGFTFSSYAMSWVRQAPGKGLEWVSGISAIDQSTYYADSVKGRFTISRDNSKNTLYLQMNSLRAEDTAVYYCARQKFMQLWGGGLRYPFGYWGQGTMVTVSS VL: SYVLTQPPSVSVSPGQTASITCSGERMGDKYAAWYQQKPGQSPVLVIYRDTKRPSGIPERFSGSNSGNTATLTISGTQAMDEADYYCGVLKQDTGVFGGGTKVTVL | – | – | – | 0.1 nM | 0.2 nM | 0.1 nM | 0.095 nM | 0.031 nM
7 | 33_640084-2 IgG1 (antibody, V domains shown, IgG1) VH: EVQLLESGGGLVQPGGSLRLSCAASGFAFSSYAMSWVRQAPGKGLEWVSAISGSGGSTYYADSVKGRFTISRDNSKNTLYLQMNSLRAEDTAVYYCARQKFMQLWGGGLRYPFGYWGQGTMVTVSS VL: SYVLTQPPSVSVSPGQTASITCSGERMGDKYAAWYQQKPGQSPVLVIYRDTKRPSGIPERFSGSNSGNTATLTISGTQAMDEADYYCQVWRDDSPIFGGGTKVTVL | – | – | – | 0.3 nM | 0.8 nM | 0.3 nM | 0.132 nM | 0.036 nM
8 | 33_640086-6 IgG1 (antibody, V domains shown, IgG1) VH: EVQLLESGGGLVQPGGSLRLSCAASGFTFSSYAMSWVRQAPGKGLEWVSGISGIDTSTYYADSVKGRFTISRDNSKNTLYLQMNSLRAEDTAVYYCARDKFMQLWGGGLRYPFGYWGQGTMVTVSS VL: SYVLTQPPSVSVSPGQTASITCSGERMGDKYAAWYQQKPGQSPVLVIYRDTKRPSGIPERFSGSNSGNTATLTISGTQAMDEADYYCEVKVKDTGVFGGGTKVTVL | – | – | – | 0.1 nM | 0.2 nM | 0.1 nM | 0.081 nM | 0.026 nM
9 | 33_640082-6 IgG1 (antibody, V domains shown, IgG1) VH: EVQLLESGGGLVQPGGSLRLSCAASGFTFSSYAMSWVRQAPGKGLEWVSGISGIDTSTYYADSVKGRFTISRDNSKNTLYLQMNSLRAEDTAVYYCARQKFMQLWGGGLRYPFGYWGQGTMVTVSS VL: SYVLTQPPSVSVSPGQTASITCSGERMGDKYAAWYQQKPGQSPVLVIYRDTKRPSGIPERFSGSNSGNTATLTISGTQAMDEADYYCGVLKQDTGVFGGGTKVTVL | – | – | – | 0.1 nM | 0.2 nM | 0.1 nM | 0.097 nM | 0.03 nM
